Earlier results, collected in publication PMC5472405.
pKd: −log10 of the molar value.

Biological target: CXCR4 (Homo sapiens) (UniProt P61073)
Sequence (P61073 whole entry): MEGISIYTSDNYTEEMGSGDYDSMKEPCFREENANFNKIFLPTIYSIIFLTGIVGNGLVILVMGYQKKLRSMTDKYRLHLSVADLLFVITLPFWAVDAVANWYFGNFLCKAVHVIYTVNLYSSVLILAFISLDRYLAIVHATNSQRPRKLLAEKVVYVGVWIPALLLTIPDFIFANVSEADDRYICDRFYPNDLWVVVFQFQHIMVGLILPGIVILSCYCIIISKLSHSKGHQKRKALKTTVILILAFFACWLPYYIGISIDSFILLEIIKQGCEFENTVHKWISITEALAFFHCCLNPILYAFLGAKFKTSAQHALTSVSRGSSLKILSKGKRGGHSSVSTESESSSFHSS

Chain of CXCL14 (O95715 35-111): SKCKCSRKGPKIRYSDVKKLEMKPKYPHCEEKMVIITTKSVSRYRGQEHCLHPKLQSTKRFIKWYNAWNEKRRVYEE

In the case of CXCL14 (from UniProt O95715), the pKd is given as 7.83.
